In the assay the target is NpuDnaE(C)_Hyg^R (90-341) (Nostoc punctiforme; Escherichia coli). As to the kind of experiment: cell-based or functional assay.

In turn, Hyg^R(1-89)-NpuDnaE(N) displayed a rooting of co-transformed poplar shoots on root induction medium supplied with Hygromycin of 80%.

Values taken from patent US20250154517A1.
